This is an account of results in the MegaScale stability set (Tsuboyama et al. 2023).

B1: EHEE_rd4_0086 (parent)
chain: EIHIRTNGEEQARKVYKMLAKRNYDVKIEQHNGQWVVTAS

Variants of B1 are the subject of the data set. The data set is described as follows: folding stability dG (cDNA display proteolysis); higher = more stable. Conditions: PBS, room temperature.
As for EIHIRTNGEEQARKVYKMLAKRNYDVKIEVHNGQWVVTAS [Q30V], the “folding stability dG” value stood at 2.22 kcal/mol. For EIHIRTNGEEQARKVYKMLAKRNYDVKIESHNGQWVVTAS [Q30S] the value was 1.58 kcal/mol. Consider EIHIRTNGEEQARKVYKMLAKRNYDVKIEYHNGQWVVTAS [Q30Y], for which the “folding stability dG” value was found to be 2.3 kcal/mol. As for EIHIRTNGEEQARKVYKMLAKRNYDVKIEAHNGQWVVTAS [Q30A], the figure is 1.33 kcal/mol; as for EIHIRTNGEEQARKVYKMLAKRNYDVKIETHNGQWVVTAS [Q30T], 1.49 kcal/mol. For EIHIRTNGEEQARKVYKMLAKRNYDVKIEGHNGQWVVTAS [Q30G] the value was 0.999 kcal/mol. Turning to EIHIRTNGEEQARKVYKMLAKRNYDVKIEDHNGQWVVTAS [Q30D], the “folding stability dG” value is 1.07 kcal/mol.

For the variant EIHIRTNGEEQARKVYKMLAKRNYDVKIERHNGQWVVTAS [Q30R], the “folding stability dG” value was found to be 1.81 kcal/mol. For EIHIRTNGEEQARKVYKMLAKRNYDVKIEPHNGQWVVTAS [Q30P] the value was 0.717 kcal/mol; for EIHIRTNGEEQARKVYKMLAKRNYDVKIEHHNGQWVVTAS [Q30H], 1.93 kcal/mol; for EIHIRTNGEEQARKVYKMLAKRNYDVKIEWHNGQWVVTAS [Q30W], 1.8 kcal/mol. As for EIHIRTNGEEQARKVYKMLAKRNYDVKIELHNGQWVVTAS [Q30L], the figure is 1.93 kcal/mol; as for EIHIRTNGEEQARKVYKMLAKRNYDVKIENHNGQWVVTAS [Q30N], 2.01 kcal/mol. Regarding EIHIRTNGEEQARKVYKMLAKRNYDVKIEKHNGQWVVTAS [Q30K], the “folding stability dG” value is 1.88 kcal/mol. For EIHIRTNGEEQARKVYKMLAKRNYDVKIEFHNGQWVVTAS [Q30F] the value was 2.38 kcal/mol. For EIHIRTNGEEQARKVYKMLAKRNYDVKIECHNGQWVVTAS [Q30C] the value was 2.32 kcal/mol.

For EIHIRTNGEEQARKVYKMLAKRNYDVKIEEHNGQWVVTAS [Q30E], the “folding stability dG” value came to 1.85 kcal/mol.

Take EIHIRTNGEEQARKVYKMLAKRNYDVKIEIHNGQWVVTAS [Q30I]: the “folding stability dG” value stood at 2.1 kcal/mol.

For EIHIRTNGEEQARKVYKMLAKRNYDVKIEMHNGQWVVTAS [Q30M], the “folding stability dG” value was found to be 1.81 kcal/mol. For EIHIRTNGEEQARKVYKMLAKRNYDVKIYQHNGQWVVTAS [E29Y] the value was 2.48 kcal/mol; for EIHIRTNGEEQARKVYKMLAKRNYDVKITQHNGQWVVTAS [E29T], 2.02 kcal/mol; for EIHIRTNGEEQARKVYKMLAKRNYDVKISQHNGQWVVTAS [E29S], 1.99 kcal/mol.

As to EIHIRTNGEEQARKVYKMLAKRNYDVKIWQHNGQWVVTAS [E29W], the “folding stability dG” value worked out at 2.33 kcal/mol. Regarding EIHIRTNGEEQARKVYKMLAKRNYDVKIVQHNGQWVVTAS [E29V], the “folding stability dG” value turned out to be 1.98 kcal/mol.

Consider EIHIRTNGEEQARKVYKMLAKRNYDVKIRQHNGQWVVTAS [E29R], for which the “folding stability dG” value worked out at 1.68 kcal/mol. As for EIHIRTNGEEQARKVYKMLAKRNYDVKIEQHNGKWVVTAS [Q34K], the figure is 1.61 kcal/mol. As for EIHIRTNGEEQARKVYKMLAKRNYDVKIEQHNGPWVVTAS [Q34P], the figure is -0.941 kcal/mol. As for EIHIRTNGEEQARKVYKMLAKRNYDVKIEQHNGHWVVTAS [Q34H], the figure is 2.04 kcal/mol; as for EIHIRTNGEEQARKVYKMLAKRNYDVKIEQHNGVWVVTAS [Q34V], 2.27 kcal/mol; as for EIHIRTNGEEQARKVYKMLAKRNYDVKIEQHNGMWVVTAS [Q34M], 2.09 kcal/mol. As for EIHIRTNGEEQARKVYKMLAKRNYDVKIEQHNGAWVVTAS [Q34A], the “folding stability dG” value was determined as 1.77 kcal/mol. As for EIHIRTNGEEQARKVYKMLAKRNYDVKIEQHNGRWVVTAS [Q34R], the “folding stability dG” value was 1.59 kcal/mol.

As for EIHIRTNGEEQARKVYKMLAKRNYDVKIEQHNGNWVVTAS [Q34N], the “folding stability dG” value amounted to 1.52 kcal/mol. With EIHIRTNGEEQARKVYKMLAKRNYDVKIEQHNGGWVVTAS [Q34G], the “folding stability dG” value stood at 1.58 kcal/mol. Regarding EIHIRTNGEEQARKVYKMLAKRNYDVKIEQHNGSWVVTAS [Q34S], the “folding stability dG” value is 1.67 kcal/mol. For EIHIRTNGEEQARKVYKMLAKRNYDVKIEQHNGYWVVTAS [Q34Y] the value was 2.55 kcal/mol; for EIHIRTNGEEQARKVYKMLAKRNYDVKIEQHNGFWVVTAS [Q34F], 2.5 kcal/mol. As for EIHIRTNGEEQARKVYKMLAKRNYDVKIEQHNGLWVVTAS [Q34L], the figure is 1.86 kcal/mol; as for EIHIRTNGEEQARKVYKMLAKRNYDVKIEQHNGWWVVTAS [Q34W], 2.31 kcal/mol; as for EIHIRTNGEEQARKVYKMLAKRNYDVKIEQHNGTWVVTAS [Q34T], 1.95 kcal/mol. As for EIHIRTNGEEQARKVYKMLAKRNYDVKIEQHNGIWVVTAS [Q34I], the figure is 2.27 kcal/mol; as for EIHIRTNGEEQARKVYKMLAKRNYDVKIEQHNGEWVVTAS [Q34E], 1.87 kcal/mol. For EIHIRTNGEEQARKVYKMLAKRNYDVKIEQHNGDWVVTAS [Q34D], the “folding stability dG” value came to 1.51 kcal/mol. For the variant EIHIRTNGEEQARKVYKMLAKRNYDVKIEQHNGQWVFTAS [V37F], the “folding stability dG” value is -0.019 kcal/mol. As for EIHIRTNGEEQARKVYKMLAKRNYDVKIEQHNGQWVMTAS [V37M], the figure is 0.044 kcal/mol. As for EIHIRTNGEEQARKVYKMLAKRNYDVKIEQHNGQWVLTAS [V37L], the figure is 0.844 kcal/mol; as for EIHIRTNGEEQARKVYKMLAKRNYDVKIEQHNGQWVITAS [V37I], 1.79 kcal/mol. As for EIHIRTNGEEQARKVYKMLAKRNYDVKIEQHEGQWVVTAS [N32E], the figure is 1.76 kcal/mol; as for EIHIRTNGEEQARKVYKMLAKRNYDVKIEQHWGQWVVTAS [N32W], 1.12 kcal/mol. As for EIHIRTNGEEQARKVYKMLAKRNYDVKIEQHMGQWVVTAS [N32M], the “folding stability dG” value amounted to 1.64 kcal/mol. For EIHIRTNGEEQARKVYKMLAKRNYDVKIEQHRGQWVVTAS [N32R], the “folding stability dG” value came out at 1.3 kcal/mol. For EIHIRTNGEEQARKVYKMLAKRNYDVKIEQHYGQWVVTAS [N32Y] the value was 1.38 kcal/mol. For EIHIRTNGEEQARKVYKMLAKRNYDVKIEQHAGQWVVTAS [N32A] the value was 1.7 kcal/mol; for EIHIRTNGEEQARKVYKMLAKRNYDVKIEQHFGQWVVTAS [N32F], 1.45 kcal/mol. For EIHIRTNGEEQARKVYKMLAKRNYDVKIEQHDGQWVVTAS [N32D] the value was 1.9 kcal/mol; for EIHIRTNGEEQARKVYKMLAKRNYDVKIEQHPGQWVVTAS [N32P], 0.291 kcal/mol; for EIHIRTNGEEQARKVYKMLAKRNYDVKIEQHLGQWVVTAS [N32L], 1.51 kcal/mol. EIHIRTNGEEQARKVYKMLAKRNYDVKIEQHQGQWVVTAS [N32Q]: the “folding stability dG” value was found to be 1.65 kcal/mol. On to EIHIRTNGEEQARKVYKMLAKRNYDVKIEQHVGQWVVTAS [N32V], for which the “folding stability dG” value is 0.762 kcal/mol. As for EIHIRTNGEEQARKVYKMLAKRNYDVKIEQHIGQWVVTAS [N32I], the figure is 0.67 kcal/mol; as for EIHIRTNGEEQARKVYKMLAKRNYDVKIEQHSGQWVVTAS [N32S], 1.38 kcal/mol; as for EIHIRTNGEEQARKVYKMLAKRNYDVKIEQHKGQWVVTAS [N32K], 1.54 kcal/mol.
